From publication PMC11374702, “Structural basis of the Meinwald rearrangement catalysed by styrene oxide isomerase” (Nature Chemistry, 2024) come the findings set out here.

The target in this test is styrene oxide isomerase (SOI), Pseudomonas sp. VLB120, wild type (Pseudomonas sp. VLB120, UniProt O50216). In words: cell-based or functional assay.

B1: nanobody (NB) raised against SOI, used for structure determination (VHH)
VHH: QGQLVESGGGLVQAGGSLRLSCTGSGRAFVTPAVGWFRQAPGKEREFVGTINWSGSHTSYADPVKGRFTISRDNAKETVYLQMNNLKPEDADVYYCASRGVSGRYEYWGKGTPVTVSS
For B1, the “catalytic efficiency (kcat/KM) for (S)-styrene oxide of the SOI–NB complex compared to the wild-type enzyme, coupled enzyme assay with EcALDH” value is 3 fold.
